For the assay, the target named is Aspergillus sydowii UBOCC-A-108050 SULT (Aspergillus sydowii UBOCC-A-108050). Description: SEC; calibrated size exclusion chromatography of the purified recombinant protein alone (self-association).

Drawing on PMC11677658, this text covers stoichiometry N for one substance.

As usually defined, the stoichiometry N is the number of molecules, sites or subunits per partner or assembly. As for “Aspergillus sydowii UBOCC-A-108050 SULT (enzyme)”, the stoichiometry N is 2.
